Biological target: PRELP expressed on the cell surface of human cancer cells (human), P51888
Assay: cell-based or functional assay

Chain of PRELP expressed on the cell surface of human cancer cells (human), P51888 (P51888 21-382): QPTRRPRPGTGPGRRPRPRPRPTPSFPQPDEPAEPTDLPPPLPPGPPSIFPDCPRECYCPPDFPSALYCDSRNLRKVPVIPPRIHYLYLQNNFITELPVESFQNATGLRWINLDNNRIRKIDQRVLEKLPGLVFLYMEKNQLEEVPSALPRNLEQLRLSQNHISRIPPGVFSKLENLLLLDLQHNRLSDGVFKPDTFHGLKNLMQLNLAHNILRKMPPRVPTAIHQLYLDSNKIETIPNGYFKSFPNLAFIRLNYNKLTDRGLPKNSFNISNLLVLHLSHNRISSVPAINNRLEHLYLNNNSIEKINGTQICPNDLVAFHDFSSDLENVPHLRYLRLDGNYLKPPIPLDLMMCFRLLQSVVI

B1: anti-PRELP-SS clone 6G1-G11 (antibody, mouse IgM, V domains shown)
VH: EVKLQQSGAELVKPGASVKLSCTASGFNIKDTYMHWVKQRPEQGLEWIGRIDPANGNTKYDPKFQGKATITADTSSNTAYLQLSSLTSEDTAVYYCARSTTVVVDYWGQGTTLTVSS
VL: DILLTQTPAIKSASPGEKVTMTCSASSSISYMHWYQQKPGTSPKRWIYDTSKLASGVPARFSGSGSGTSYSLTISSMEAEDAATYYCHQRSSYPTFGAGTKLELK
apoptosis (Annexin V-FITC and propidium iodide staining) of CLL cells, 18 hrs, 2.5 ug antibody: 16.9%
apoptosis (Annexin V-FITC and propidium iodide staining) of CLL cells, 18 hrs, 5 ug antibody: 32.2%
apoptosis (Annexin V-FITC and propidium iodide staining) of CLL cells, 18 hrs, 7.5 ug antibody: 39.2%

Reference: patent US20130039917A1
